Laboratory results from patent publication US20250313634A1 (WUXI BIOLOGICS SHANGHAI, published 2025).

Key:
[1] = target: T1, full-length human PD-L1 expressed on CHO cells (human, UniProt Q9NZQ7 19-290); test: FACS on CHO cells transfected with full-length human PD-L1
T1 construct: whole, on cells; also called CHO-K1 cells expressing human PD-L1; PD-L1 transfected CHO cells

[2] = target: T2, hPD-L1_ECD.His point mutant N135A (human, UniProt Q9NZQ7 19-238); test: capture ELISA on coated 1.14.4; relative to silent alanine substitutions
T2 construct: extracellular domain
Protocol: (§1) After interacting with the supernatant that contains quantified PD-L1 mutant or human/mouse PD-L1_ECD.His protein (Sino Biological, China), HRP conjugated anti-His antibody (1:5000; Rockland Immunochemicals, Pottstown, PA) was added as detection antibody. Absorbance was normalized according to the average of control mutants. After setting an additional cutoff to the binding fold change (<0.55), the final determined epitope residues were identified.
(§2) The observed binding reductions most probably resulted from the instability or even collapse of hPD-L1 structure after alanine substitutions. After setting an additional cutoff to the binding fold change (<0.55), the final determined epitope residues were listed in Table 3.

[3] = target: T3, hPD-L1_ECD.His point mutant T37A (human, UniProt Q9NZQ7 19-238); test: as above
T3 construct: extracellular domain
Protocol: as §1, §2

[4] = target: T4, hPD-L1_ECD.His point mutant V76A (human, UniProt Q9NZQ7 19-238); test: as above
T4 construct: extracellular domain
Protocol: as §1, §2

[5] = target: T5, hPD-L1_ECD.His point mutant G33A (human, UniProt Q9NZQ7 19-238); test: as above
T5 construct: extracellular domain
Protocol: as §1, §2

[6] = target: T1, full-length human PD-L1 expressed on …; test: FACS competition on CHO cells expressing human PD-L1; competitor mouse Fc-tagged human PD-1
Protocol: (§3) 3.1 Competition assay by FACS: to examine whether the fully human antibodies can block the binding of PD-L1 to PD-1, the CHO-K1 cells expressing human PD-L1 were incubated with various concentrations of the fully human antibodies at 4° C. for 1 hour. The unbound antibodies were washed away, and then the mouse Fc-tagged human PD-1 was added to the cells. The binding of human PD-1 to PD-L1 expressing cell was detected by using FITC-conjugated goat anti-mouse IgG, followed by the analysis using a BD Biosciences FACSCanto II and FlowJo Version software.
(§4) Then the mouse Fc-tagged human PD-1 was added to the cells. The binding of human PD-1 to PD-L1 expressing cell was detected by using FITC-conjugated goat anti-mouse IgG, followed by the FACS analysis.

[7] = target: T6, PD-L2 expressed on transfected CHO cells (Homo sapiens (Human), UniProt Q9BQ51 20-273); test: FACS on PD-L2 transfected CHO-K1 cells, single bar, antibody concentration not shown
T6 construct: also called PD-L2 of PD-1 ligand family
T6 sequence: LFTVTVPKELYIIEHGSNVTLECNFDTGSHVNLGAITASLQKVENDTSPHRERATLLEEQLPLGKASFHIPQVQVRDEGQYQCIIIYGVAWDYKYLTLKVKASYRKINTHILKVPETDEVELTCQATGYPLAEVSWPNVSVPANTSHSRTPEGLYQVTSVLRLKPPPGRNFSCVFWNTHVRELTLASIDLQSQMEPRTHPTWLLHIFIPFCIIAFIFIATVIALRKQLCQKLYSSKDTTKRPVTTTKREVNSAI
Protocol: 3.8 Cross-family binding assay by FACS: to examine the cross-family binding activity of the fully human antibodies, cells lines that express PD-L2 were stained with the fully human antibodies, followed by 2nd antibody staining with FITC conjugated goat anti-human IgG Fc. PD-L1 expressing cells were used as positive control. Corresponding parental cell lines were used as negative controls. The stained cells were analyzed by using a BD Biosciences FACSCanto II and FlowJo Version software.
CHO cells transfected with PD-L1 or PD-L2 were stained with fully human PD-L1 antibodies and analysis by FACS.

[8] = target: T7, mouse PD-L1_ECD.His protein (mouse, UniProt Q9EP73 19-239); test: ELISA, 2 ug/ml 1.14.4 coated on the plate, mPD-L1-His protein titrated, HRP-anti-His detection
T7 construct: extracellular domain; Bought (Sino Biological, China); also called mPD-L1-His protein

murine PD-L1 = target: T8, murine PD-L1 (mouse, UniProt Q9EP73 19-238, limits assumed); test: ELISA, murine PD-L1 coated on the plate, goat anti-human IgG Fc-HRP; antibody concentration not shown
T8 construct: also called mouse PD-L1 (coated on ELISA plates)
Protocol: 3.7 Cross-species binding assay: the cross-reactivity of the Ab to cynomolgus and murine PD-L1 was measured by ELISA. Human, cyno and mouse PD-L1 were coated on ELISA plates, respectively. After blocking, fully human antibodies were added into the plate and incubated at room temperature for at least 2 hours. The binding of the antibodies to the coated antigens was detected by using goat anti-human IgG Fc-HRP. The color reaction was developed using TMB substrate and stopped by 2M HCl. The ELISA plates were analyzed at 450 nm using a Molecular Device M5e microplate reader.

[9] = target: T1, full-length human PD-L1 expressed on …; test: FACS competition: blocking of mouse Fc-tagged human PD-1 binding to CHO cells expressing human PD-L1
Protocol: as §3, §4

recombinant human PD-L1 = target: T9, recombinant human PD-L1 (human, UniProt Q9NZQ7 19-238, limits assumed); test: surface plasmon resonance per legend paragraph 39 and paragraph 188; column Best fit-KD, mol/L from the legend
T9 construct: Used for the SPR analyte (3.2) and for the plate-coated human PD-L1 of the cross-species ELISA (3.7); also called human PD-L1 (SPR analyte); Human PD-L1 coated on ELISA plates
Source text: 3.2 Affinity test by surface plasmon resonance (SPR): Antibodies were characterized for affinity and binding kinetics to PD-L1 by SPR assay using ProteOn XPR36 (Bio-Rad). Protein A protein (Sigma) was immobilized to a GLM sensor chip (Bio-Rad) through amine coupling. Purified antibodies were flowed over the sensor chip and captured by the Protein A. The chip was rotated […] and washed with running buffer (1×PBS/0.01% Tween20, Bio-Rad) until the baseline is stable. Five concentrations of human PD-L1 and running buffer were flowed against the antibody flow cell at a flow rate 100 μL/min for an association phase of 240s, followed by 600s dissociation. The chip was regenerated with pH 1.7 H₃PO₄ after each run. The association and dissociation curve was fit to a 1:1 Langmiur binding model using ProteOn software.

T1 sequence (Q9NZQ7 19-290): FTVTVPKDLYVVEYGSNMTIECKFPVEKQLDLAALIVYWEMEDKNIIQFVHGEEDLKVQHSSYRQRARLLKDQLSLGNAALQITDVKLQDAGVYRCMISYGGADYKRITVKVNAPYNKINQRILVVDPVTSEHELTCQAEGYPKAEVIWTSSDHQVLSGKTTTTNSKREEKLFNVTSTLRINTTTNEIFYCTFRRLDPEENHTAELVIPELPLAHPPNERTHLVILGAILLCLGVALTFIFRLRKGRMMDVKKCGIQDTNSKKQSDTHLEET
T4 sequence (Q9NZQ7 19-238 V76A): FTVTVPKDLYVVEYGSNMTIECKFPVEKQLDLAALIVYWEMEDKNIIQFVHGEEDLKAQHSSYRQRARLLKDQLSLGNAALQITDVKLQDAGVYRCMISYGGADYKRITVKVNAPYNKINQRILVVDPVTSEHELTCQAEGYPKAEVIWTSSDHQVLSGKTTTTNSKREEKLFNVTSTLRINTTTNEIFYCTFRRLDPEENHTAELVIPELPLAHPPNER
T7 sequence (Q9EP73 19-239): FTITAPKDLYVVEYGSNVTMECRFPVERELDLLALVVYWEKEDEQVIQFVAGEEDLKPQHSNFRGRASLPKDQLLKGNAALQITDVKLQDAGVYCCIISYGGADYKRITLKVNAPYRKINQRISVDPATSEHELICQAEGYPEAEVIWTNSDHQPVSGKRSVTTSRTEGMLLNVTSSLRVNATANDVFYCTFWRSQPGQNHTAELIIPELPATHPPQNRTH
T3 sequence (Q9NZQ7 19-238 T37A): as the sequence (Q9NZQ7 19-238 V76A) above, with T19A, A58V counted along it
T2 sequence (Q9NZQ7 19-238 N135A): as the sequence (Q9NZQ7 19-238 V76A) above, with A58V, N117A counted along it
T9 sequence (Q9NZQ7 19-238 limits assumed): as the sequence (Q9NZQ7 19-238 V76A) above, with A58V counted along it
T8 sequence (Q9EP73 19-238 limits assumed): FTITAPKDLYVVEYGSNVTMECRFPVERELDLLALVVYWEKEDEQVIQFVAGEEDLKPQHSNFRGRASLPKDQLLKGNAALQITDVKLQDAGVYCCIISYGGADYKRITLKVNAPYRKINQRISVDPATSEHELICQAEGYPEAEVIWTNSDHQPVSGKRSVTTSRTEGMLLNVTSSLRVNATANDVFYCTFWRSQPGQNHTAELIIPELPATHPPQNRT
T5 sequence (Q9NZQ7 19-238 G33A): as the sequence (Q9NZQ7 19-238 V76A) above, with G15A, A58V counted along it

B1: 1.14.4 (antibody, V domains shown)
VH: EVQLLESGGGLVQPGGSLRLSCAASGFTFSSYAMSWVRQAPGKGLEWVSGISGSGGFTYYADSVKGRFTISRDNSKNTLYLQMNSLRAEDTAVYYCAKPPRGYNYGPFDYWGQGTLVTVSS
VL: SYVLTQPPSVSVAPGQTARITCGGNNIGSKSVHWYQQKPGQAPVLVVYDDSDRPSGIPERFSGSNSGNTATLTISRVEAGDEADYYCQVWDSSSDHVVFGGGTKLTVL
notes: Fully human monoclonal antibody with a human constant region of IgG4 isotype
In the case of B1, the “EC50 (read off the curve)” value [1] is reported as roughly 1 nM, the fold change [2] is reported as 1.03 fold and the fold change [3] is reported as 0.569 fold. For the same binder, the fold change [4] was 0.76 fold, the fold change [5] was 0.807 fold and the IC50 [6] was roughly 10 nM. B1: no binding [7]; no binding [8]; no binding (murine PD-L1). The “IC50 (read off the curve)” value [9] was roughly 2 nM and the Kd (recombinant human PD-L1) was 0.392 nM.
